What follows are substances tested against HLA-A*02:01 (Homo sapiens, UniProt P04439, D140Y/D185E/D98H/E176V/E277Q/G131W/G231S/I119V/I121R/I166T/I218V/L300P/L318F/N151K/N90K/P208A/P217A/Q86G/Q94H/R138H/R169H/T345S) (assay: MHC binding assay (UV-ligand exchange, β2m ELISA)). Settings: MHC class I binding score; binding to HLA-A*02:01 ranged by peptide exchange yield (UV-ligand exchange, β2m ELISA).
Excerpt: Candidate peptides for T cell based therapies according to the present invention were further tested for their MHC binding capacity (affinity). The individual peptide-MHC complexes were produced by UV-ligand exchange, where a UV-sensitive peptide is cleaved upon UV-irradiation, and exchanged with the peptide of interest as analyzed. Only peptide candidates that can effectively bind and stabilize the peptide-receptive MHC molecules prevent dissociation of the MHC complexes. To determine the yield of the exchange reaction, an ELISA was performed based on the detection of the light chain (β2m) of stabilized MHC complexes. The assay was performed as generally described in Rodenko et al. (Rodenko et al., 2006).
96 well MAXISorp plates (NUNC) were coated over night with 2 ug/ml streptavidin in PBS at room temperature, washed 4× and blocked for 1 h at 37° C. in 2% BSA containing blocking buffer. Refolded HLA-A*02:01/MLA-001 monomers served as standards, covering the range of 15-500 ng/ml. Peptide-MHC monomers of the UV-exchange reaction were diluted 100 fold in blocking buffer. Samples were incubated for 1 h at 37° C., washed four times, incubated with 2 ug/ml HRP conjugated anti-β2m for 1 h at 37° C., washed again and detected with TMB solution that is stopped with […]. Absorption was measured at 450 nm. Candidate peptides that show a high exchange yield (preferably higher than 50%, most preferred higher than 75%) are generally preferred for a generation and production of antibodies or fragments thereof, and/or T cell receptors or fragments thereof, as they show sufficient avidity to the MHC molecules and prevent dissociation of the MHC complexes.
In the case of “53 (ILDEEKFNV; listed as Homo sapiens) [compound 53]”, the Peptide exchange is reported as “+++ (>50 = +++)”.
In the case of “54 (LLDSGAFHL; listed as Homo sapiens) [compound 54]”, the Peptide exchange is reported as “+++ (>50 = +++)”.
“55 (NLDKLYHGL; listed as Homo sapiens) [compound 55]” was tested, and the Peptide exchange was “+ (>10% = +)”.
“56 (ILDELVKSL; listed as Homo sapiens) [compound 56]” was tested, and the Peptide exchange was “+++ (>50 = +++)”.
For “57 (GILSFLPVL; listed as Homo sapiens) [compound 57]”, the Peptide exchange was “+++ (>50 = +++)”.
In the case of “58 (ILGDWSIQV; listed as Homo sapiens) [compound 58]”, the Peptide exchange is reported as “++++ (>75% = ++++)”.
“59 (IIDDVMKEL; listed as Homo sapiens) [compound 59]” was tested, and the Peptide exchange was “++ (>20% = ++)”.
For “60 (ILPEAQDYFL; listed as Homo sapiens) [compound 60]”, the Peptide exchange was “++++ (>75% = ++++)”.
With “61 (KLSVHVTAL; listed as Homo sapiens) [compound 61]” the Peptide exchange was “++++ (>75% = ++++)”.
For “62 (LLDTTQKYL; listed as Homo sapiens) [compound 62]”, the Peptide exchange was “++++ (>75% = ++++)”.
With “63 (SIDDSDPIV; listed as Homo sapiens) [compound 63]” the Peptide exchange was “+ (>10% = +)”.
“64 (SLGPIMLTKI; listed as Homo sapiens) [compound 64]” was tested, and the Peptide exchange was “++ (>20% = ++)”.
“65 (TTLGGFAKV; listed as Homo sapiens) [compound 65]” was tested, and the Peptide exchange was “++ (>20% = ++)”.
With “66 (VMFEYGMRL; listed as Homo sapiens) [compound 66]” the Peptide exchange was “++++ (>75% = ++++)”.
In the case of “67 (YVDSEGIVRM; listed as Homo sapiens) [compound 67]”, the Peptide exchange is reported as “+ (>10% = +)”.
“68 (FLAEAARSL; listed as Homo sapiens) [compound 68]” was tested, and the Peptide exchange was “++++ (>75% = ++++)”.
For “69 (IIDDKPIGL; listed as Homo sapiens) [compound 69]”, the Peptide exchange was “+++ (>50 = +++)”.
With “70 (LIDEAAQML; listed as Homo sapiens) [compound 70]” the Peptide exchange was “+++ (>50 = +++)”.
“71 (SLDEVAVSL; listed as Homo sapiens) [compound 71]” was tested, and the Peptide exchange was “++++ (>75% = ++++)”.
With “72 (TLLEVDAIVNA; listed as Homo sapiens) [compound 72]” the Peptide exchange was “++++ (>75% = ++++)”.
In the case of “73 (ELDKIYETL; listed as Homo sapiens) [compound 73]”, the Peptide exchange is reported as “+ (>10% = +)”.
For “74 (GTIPLIESL; listed as Homo sapiens) [compound 74]”, the Peptide exchange was “+ (>10% = +)”.
With “75 (FMYAGQLTL; listed as Homo sapiens) [compound 75]” the Peptide exchange was “++++ (>75% = ++++)”.
“76 (QIDSIHLLL; listed as Homo sapiens) [compound 76]” was tested, and the Peptide exchange was “+++ (>50 = +++)”.
In the case of “77 (SIDDVVKKL; listed as Homo sapiens) [compound 77]”, the Peptide exchange is reported as “++ (>20% = ++)”.
In the case of “78 (ALKDLVNLI; listed as Homo sapiens) [compound 78]”, the Peptide exchange is reported as “++++ (>75% = ++++)”.
With “79 (AVDNILLKL; listed as Homo sapiens) [compound 79]” the Peptide exchange was “+++ (>50 = +++)”.
“80 (FADELSHLL; listed as Homo sapiens) [compound 80]” was tested, and the Peptide exchange was “+++ (>50 = +++)”.
“81 (FLDDGNQML; listed as Homo sapiens) [compound 81]” was tested, and the Peptide exchange was “+++ (>50 = +++)”.
For “82 (GIDDLHISL; listed as Homo sapiens) [compound 82]”, the Peptide exchange was “+++ (>50 = +++)”.
In the case of “83 (GLDKVITVL; listed as Homo sapiens) [compound 83]”, the Peptide exchange is reported as “+++ (>50 = +++)”.
With “84 (GLDTILQNL; listed as Homo sapiens) [compound 84]” the Peptide exchange was “++++ (>75% = ++++)”.
“85 (GLLDVMYQV; listed as Homo sapiens) [compound 85]” was tested, and the Peptide exchange was “++++ (>75% = ++++)”.
With “86 (HTLPHEIVVNL; listed as Homo sapiens) [compound 86]” the Peptide exchange was “+++ (>50 = +++)”.
For “87 (IIDPPLHGQLL; listed as Homo sapiens) [compound 87]”, the Peptide exchange was “++ (>20% = ++)”.
For “88 (ILDGIIREL; listed as Homo sapiens) [compound 88]”, the Peptide exchange was “+++ (>50 = +++)”.
In the case of “89 (ILDNSPAFL; listed as Homo sapiens) [compound 89]”, the Peptide exchange is reported as “+++ (>50 = +++)”.
With “90 (ILDYIHNGL; listed as Homo sapiens) [compound 90]” the Peptide exchange was “+++ (>50 = +++)”.
For “91 (ILLDRLFSV; listed as Homo sapiens) [compound 91]”, the Peptide exchange was “++++ (>75% = ++++)”.
In the case of “92 (KLPGFPTQDDEV; listed as Homo sapiens) [compound 92]”, the Peptide exchange is reported as “++ (>20% = ++)”.
With “93 (LLAKAVQNV; listed as Homo sapiens) [compound 93]” the Peptide exchange was “+++ (>50 = +++)”.
“94 (LLDAFSIKL; listed as Homo sapiens) [compound 94]” was tested, and the Peptide exchange was “+++ (>50 = +++)”.
With “95 (LLDALQHEL; listed as Homo sapiens) [compound 95]” the Peptide exchange was “+++ (>50 = +++)”.
With “96 (LLDMSLVKL; listed as Homo sapiens) [compound 96]” the Peptide exchange was “+++ (>50 = +++)”.
In the case of “97 (NLDATVTAL; listed as Homo sapiens) [compound 97]”, the Peptide exchange is reported as “+++ (>50 = +++)”.
With “98 (NLPNTNSILGV; listed as Homo sapiens) [compound 98]” the Peptide exchange was “+++ (>50 = +++)”.
For “99 (NLPSELPQL; listed as Homo sapiens) [compound 99]”, the Peptide exchange was “+++ (>50 = +++)”.
For “100 (NLREILQNV; listed as Homo sapiens) [compound 100]”, the Peptide exchange was “+++ (>50 = +++)”.
With “101 (NVDENVAEL; listed as Homo sapiens) [compound 101]” the Peptide exchange was “++ (>20% = ++)”.
With “102 (RLPDQFSKL; listed as Homo sapiens) [compound 102]” the Peptide exchange was “+++ (>50 = +++)”.
“103 (SLDAVMPHL; listed as Homo sapiens) [compound 103]” was tested, and the Peptide exchange was “+++ (>50 = +++)”.
With “104 (SLDQIIQHL; listed as Homo sapiens) [compound 104]” the Peptide exchange was “+++ (>50 = +++)”.
For “105 (SLKQTVVTL; listed as Homo sapiens) [compound 105]”, the Peptide exchange was “+++ (>50 = +++)”.
In the case of “106 (TLSEICEFI; listed as Homo sapiens) [compound 106]”, the Peptide exchange is reported as “++++ (>75% = ++++)”.
“107 (TLVAFLQQV; listed as Homo sapiens) [compound 107]” was tested, and the Peptide exchange was “++++ (>75% = ++++)”.
“108 (TVIRPLPGL; listed as Homo sapiens) [compound 108]” was tested, and the Peptide exchange was “++ (>20% = ++)”.
In the case of “109 (VIDDLIQKL; listed as Homo sapiens) [compound 109]”, the Peptide exchange is reported as “++ (>20% = ++)”.
“110 (VLDTLTKVL; listed as Homo sapiens) [compound 110]” was tested, and the Peptide exchange was “+++ (>50 = +++)”.
For “111 (VLDVSFNRL; listed as Homo sapiens) [compound 111]”, the Peptide exchange was “+++ (>50 = +++)”.
With “112 (VLPAVLTRL; listed as Homo sapiens) [compound 112]” the Peptide exchange was “+++ (>50 = +++)”.
With “113 (VLYSLVSKI; listed as Homo sapiens) [compound 113]” the Peptide exchange was “+++ (>50 = +++)”.
In the case of “114 (VVDDIVSKL; listed as Homo sapiens) [compound 114]”, the Peptide exchange is reported as “++ (>20% = ++)”.
For “115 (YIDDVFMGL; listed as Homo sapiens) [compound 115]”, the Peptide exchange was “+++ (>50 = +++)”.
With “117 (KQQASQVLV; listed as Homo sapiens) [compound 117]” the Peptide exchange was “+++ (>50 = +++)”.
“118 (TMIEICEKL; listed as Homo sapiens) [compound 118]” was tested, and the Peptide exchange was “++++ (>75% = ++++)”.
In the case of “119 (SLGLGFISRV; listed as Homo sapiens) [compound 119]”, the Peptide exchange is reported as “+++ (>50 = +++)”.
“120 (QLMEGKVVL; listed as Homo sapiens) [compound 120]” was tested, and the Peptide exchange was “++++ (>75% = ++++)”.
With “122 (YVDDFGVSV; listed as Homo sapiens) [compound 122]” the Peptide exchange was “+++ (>50 = +++)”.
In the case of “123 (LLGEGIPSA; listed as Homo sapiens) [compound 123]”, the Peptide exchange is reported as “++++ (>75% = ++++)”.
In the case of “124 (FLPQKIIYL; listed as Homo sapiens) [compound 124]”, the Peptide exchange is reported as “++++ (>75% = ++++)”.
In the case of “125 (YLFAFLNHL; listed as Homo sapiens) [compound 125]”, the Peptide exchange is reported as “++++ (>75% = ++++)”.
“126 (SLIDFVVTC; listed as Homo sapiens) [compound 126]” was tested, and the Peptide exchange was “+++ (>50 = +++)”.
“127 (TLISDIEAVKA; listed as Homo sapiens) [compound 127]” was tested, and the Peptide exchange was “+++ (>50 = +++)”.

— patent US10640547B2, “Immunotherapy against melanoma and other cancers” (IMMATICS BIOTECHNOLOGIES GMBH, priority 2016, dated 2020)
